# Test system: Soluble human recombinant p97 (melanotransferrin)
# Sequence (chain, as listed by the source): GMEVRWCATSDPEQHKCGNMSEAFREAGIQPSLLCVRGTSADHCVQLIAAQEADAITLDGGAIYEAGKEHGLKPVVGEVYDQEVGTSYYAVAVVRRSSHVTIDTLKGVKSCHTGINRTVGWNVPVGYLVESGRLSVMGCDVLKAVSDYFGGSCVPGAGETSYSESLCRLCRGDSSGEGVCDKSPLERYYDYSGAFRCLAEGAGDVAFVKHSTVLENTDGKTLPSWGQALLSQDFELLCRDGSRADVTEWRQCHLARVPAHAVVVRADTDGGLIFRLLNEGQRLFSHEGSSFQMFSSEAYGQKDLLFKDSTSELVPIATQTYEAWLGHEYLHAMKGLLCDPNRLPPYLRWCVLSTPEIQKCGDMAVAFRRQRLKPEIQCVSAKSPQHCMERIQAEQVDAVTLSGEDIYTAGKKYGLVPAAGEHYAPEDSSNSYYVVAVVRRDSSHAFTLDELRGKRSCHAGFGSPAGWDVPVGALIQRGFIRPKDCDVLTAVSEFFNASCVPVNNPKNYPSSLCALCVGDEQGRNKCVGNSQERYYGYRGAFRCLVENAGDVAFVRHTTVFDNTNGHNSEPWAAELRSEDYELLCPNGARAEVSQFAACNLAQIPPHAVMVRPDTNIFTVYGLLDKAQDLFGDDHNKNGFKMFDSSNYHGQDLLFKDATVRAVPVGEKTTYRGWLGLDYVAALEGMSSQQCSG
substance,measurement,value
pro-urokinase plasminogen activator (pro-uPA),"VLK-pNA hydrolysis (plasminogen activation by pro-uPA) with 70 nM p97 and 30 nM plasminogen, after 180 min",the VLK-pNA hydrolysis is 4-fold higher after 180 min
same,"VLK-pNA hydrolysis by 90 nM pro-uPA with 70 nM p97, without plasminogen",goes from less than 50 AU/min in the absence of p97 to more than 450 AU/min when p97 is added
same,half-maximal stimulation of plasminogen cleavage by pro-uPA (initial rates of plasmin activity),half-maximal stimulation occurring at 25±6 nM
same,increase of catalytic efficiency of plasminogen activation by pro-uPA with 250 nM p97,increasing the catalytic efficiency by a factor of 2.4-fold
